The source of these data is patent US20220380464A1 (Genmab, published 2022).

Broadly, the Kd is a measure of binding affinity in units of concentration. Read a low Kd as higher affinity.

Test [1] concerns the target T1, human CD3 on human T cells (human, UniProt P07766 23-207).
T1 construct: Natural CD3/TCR complex on T cells isolated from human donor buffy coats; The other chains of the complex (CD3γ, CD3δ, CD3ζ, polyclonal TCR) are also present on the cells
The test is described as follows: flow cytometry on isolated human T cells, PE anti-human IgG detection.
Procedure: (§2) T cells were Isolated from a buffy coat fraction of anti-coagulated human donor blood samples and resuspended in PBS/0.1% BSA/0.02% azide at 1.8×10E6 cells/mL. 50 μL of T cell suspension and 50 μL of the antibody dilutions were combined in a 96 well plate on ice, Incubated for 30 min at 4° C. and washed twice with PBS/0.1% BSA/0.02% azide. […] The cells were resuspended in 120 μL PBS/0.1% BSA/0.02% azide and PE geometric Mean Fluorescence Intensity was measured. Binding curves were analyzed using non-linear regression (sigmoidal dose-response with variable slope) using GraphPad Prism V5.04 software (GraphPad Software, San Diego, Calif., USA) and apparent affinity (KD) was derived from the concentration at half-maximal binding.

The target of test [2] is T1, human CD3 on human T cells. Put plainly: flow cytometry on human T cells, PE anti-human IgG, GM-PE. Background: In flow cytometry, cells or beads pass a laser one at a time.
Procedure: as §2
Test [3] concerns the target T2, CD3ε27-GSKa (human).
T2 construct: also called Mature CD3ε27-GSKa
Put plainly: BLI (Octet), summary table repeating Table 4. On the procedure:
(§1) Experiments were carried out while shaking at 1000 rpm and at 30° C.

Test [4] addresses T2, CD3ε27-GSKa. The test is described as follows: BLI (Octet HTX), UniTE antibody on anti-human Fc sensors, CD3ε27-GSKa in solution, 1:1 fit. On the procedure: as §1
Background: BLI is a label-free optical method that tracks binding on a fibre tip over time.

T1 sequence (P07766 23-207 limits assumed): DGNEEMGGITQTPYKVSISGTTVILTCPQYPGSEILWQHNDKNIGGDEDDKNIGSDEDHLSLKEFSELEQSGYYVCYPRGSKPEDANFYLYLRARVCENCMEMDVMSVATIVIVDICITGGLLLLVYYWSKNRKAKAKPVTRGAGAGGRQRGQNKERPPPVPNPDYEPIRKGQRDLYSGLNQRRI
T2 sequence (chain, as listed by the source limits assumed): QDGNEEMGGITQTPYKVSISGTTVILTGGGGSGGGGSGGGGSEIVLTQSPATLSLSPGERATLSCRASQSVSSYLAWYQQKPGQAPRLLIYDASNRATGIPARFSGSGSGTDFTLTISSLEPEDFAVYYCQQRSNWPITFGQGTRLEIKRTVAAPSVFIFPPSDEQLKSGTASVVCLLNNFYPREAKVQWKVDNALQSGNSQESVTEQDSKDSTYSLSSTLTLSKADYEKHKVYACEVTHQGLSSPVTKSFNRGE

B1: UniTE-huCD3-H1L1-H101F-LT41K (antibody, V domains shown)
VH: EVKLVESGGGLVQPGGSLRLSCAASGFTFNTYAMNWVRQAPGKGLEWVARIRSKYNNYATYYADSVKDRFTISRDDSKSSLYLQMNNLKTEDTAMYYCVRFGNFGNSYVSWFAYWGQGTLVTVSS
VL: not shown
notes: Monovalent UniBody-TE format
B1: the “Tcell binding average at 5000ng/ml (Geometric MFI)” value (“Tcell binding average at 5000ng/ml” below) in test [1] is 641 Geometric MFI. In addition, the binding result in test [2] is recorded as “no binding (tested: 5000 ng/mL)”.

B2: UniTE-huCD3-H1L1-T31P-LT41K (antibody, V domains shown)
VH: EVKLVESGGGLVQPGGSLRLSCAASGFTFNPYAMNWVRQAPGKGLEWVARIRSKYNNYATYYADSVKDRFTISRDDSKSSLYLQMNNLKTEDTAMYYCVRHGNFGNSYVSWFAYWGQGTLVTVSS
VL: not shown
notes: Monovalent UniBody-TE format
For the molecule B2, the “Tcell binding average at 5000ng/ml” value in test [1] amounted to 4290 Geometric MFI. Also, in test [3], the affinity, expressed as Kd, was 49 nM. In test [4], this molecule had a Ka of 2e+07 M⁻¹ and an equilibrium dissociation constant (Kd) of 49 nM.

B3: UniTE-huCD3-H1L1-Y114V-LT41K (antibody, V domains shown)
VH: EVKLVESGGGLVQPGGSLRLSCAASGFTFNTYAMNWVRQAPGKGLEWVARIRSKYNNYATYYADSVKDRFTISRDDSKSSLYLQMNNLKTEDTAMYYCVRHGNFGNSYVSWFAVWGQGTLVTVSS
VL: not shown
Regarding B3, the “Tcell binding average at 5000ng/ml” value in test [1] is 6020 Geometric MFI. The molecule also displayed a Kd in test [3] of 75 nM. In addition, in test [4], the Ka stood at 1.3e+07 M⁻¹ and the Kd stood at 75 nM.

B4: UniTE-huCD3-H1L1-T31M-LT41K (antibody, V domains shown)
VH: EVKLVESGGGLVQPGGSLRLSCAASGFTFNMYAMNWVRQAPGKGLEWVARIRSKYNNYATYYADSVKDRFTISRDDSKSSLYLQMNNLKTEDTAMYYCVRHGNFGNSYVSWFAYWGQGTLVTVSS
VL: not shown
notes: Monovalent UniBody-TE format
In the case of B4, the “Tcell binding average at 5000ng/ml” value in test [1] came out at 1920 Geometric MFI. The molecule further yielded a Kd in test [3] of 200 nM. For the same molecule, in test [4], the Ka turned out to be 5.1e+06 M⁻¹ and binding was characterised by a dissociation constant (Kd) of 200 nM.

B5: UniTE-huCD3-H1L1-Y114M-LT41K (antibody, V domains shown)
VH: EVKLVESGGGLVQPGGSLRLSCAASGFTFNTYAMNWVRQAPGKGLEWVARIRSKYNNYATYYADSVKDRFTISRDDSKSSLYLQMNNLKTEDTAMYYCVRHGNFGNSYVSWFAMWGQGTLVTVSS
VL: not shown
notes: Monovalent UniBody-TE format
On to B5, for which the “Tcell binding average at 5000ng/ml” value in test [1] worked out at 3830 Geometric MFI. In test [3], this molecule showed a Kd of 76 nM. Further, in test [4], the Ka turned out to be 1.3e+07 M⁻¹ and the Kd turned out to be 76 nM.
